According to US7960513B2, “Antibody against a human ADAM protease” (Monash University, priority 2004, dated 2011):

T1: EphA3 (wild type, expressed in cells) (UniProt P29320 21-983, limits assumed)
T1 construct: whole, on cells; also called wt EphA3; w/t EphA3
T1 sequence (looked up): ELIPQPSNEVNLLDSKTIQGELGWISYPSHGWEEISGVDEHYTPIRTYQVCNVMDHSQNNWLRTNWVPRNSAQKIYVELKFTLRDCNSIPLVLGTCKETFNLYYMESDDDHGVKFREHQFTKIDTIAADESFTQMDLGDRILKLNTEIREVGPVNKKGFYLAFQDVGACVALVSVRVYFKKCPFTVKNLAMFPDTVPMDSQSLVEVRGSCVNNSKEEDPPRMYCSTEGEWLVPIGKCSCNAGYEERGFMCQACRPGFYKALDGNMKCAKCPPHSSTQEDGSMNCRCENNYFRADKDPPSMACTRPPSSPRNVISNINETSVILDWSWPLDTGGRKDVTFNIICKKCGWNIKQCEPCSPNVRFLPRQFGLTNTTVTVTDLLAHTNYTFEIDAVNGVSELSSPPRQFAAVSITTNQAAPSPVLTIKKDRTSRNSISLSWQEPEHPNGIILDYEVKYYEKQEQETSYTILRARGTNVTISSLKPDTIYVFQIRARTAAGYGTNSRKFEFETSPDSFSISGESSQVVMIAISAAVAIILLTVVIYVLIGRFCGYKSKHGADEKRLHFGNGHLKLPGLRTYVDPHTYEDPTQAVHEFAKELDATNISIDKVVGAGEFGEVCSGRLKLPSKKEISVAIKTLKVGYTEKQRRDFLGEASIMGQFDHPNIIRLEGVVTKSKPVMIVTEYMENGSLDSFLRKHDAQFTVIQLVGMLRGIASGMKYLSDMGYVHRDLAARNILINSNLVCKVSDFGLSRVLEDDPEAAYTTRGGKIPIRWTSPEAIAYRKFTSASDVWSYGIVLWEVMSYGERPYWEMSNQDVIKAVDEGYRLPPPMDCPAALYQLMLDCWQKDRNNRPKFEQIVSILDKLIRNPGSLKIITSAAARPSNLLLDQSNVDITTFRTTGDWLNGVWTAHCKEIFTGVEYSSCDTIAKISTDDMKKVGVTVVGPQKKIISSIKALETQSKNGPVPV


Tests used:
[1] = test system: EphA3-expressing 293 cells; assay: Ephrin-A5-Fc cleavage in EphA3/293 cells overexpressing ADAM10 constructs (Western blot of recovered ephrin); type: cell-based, human; details: overexpression of ADAM10 construct; clustered ephrin-A5-Fc
Protocol: (§1) FIG. 4. Mutation of acidic residues in the ADAM10 Cys-rich domain affects binding to EphA3/ephrin-A5 and cleavage of ephrin-A5. • A. In vitro binding of mutant ADAM10D+C to EphA3/ephrin-A5. ADAM10D+C[EEE-A] containing Alanine substitutions of Glu573, Glu578, Glu579 (lanes 1-4) or ADAM10D+C[RDD-A] (Ala substitutions of Arg525, Asp526, Asp527, lanes 5-8) were incubated alone (lanes 1, 5), or together with EphA3-Fc (lanes 2, 6), ephrin-A5-Fc (lanes 3, 7), or EphA3-Fc and ephrin-A5 (lanes 4, 8). Complexed proteins were extracted with Protein-A-Sepharose beads and analysed as in FIG. 2. • B. Binding of wild-type and mutant ADAM10ΔMP to EphA3 in cells. EphA3/293 cells were transfected with HA-ADAM10ΔMP or HA-ADAM10ΔMP [EEE-A]. Parental and transfected cells were treated for 10 min with or without pre-clustered ephrin-A5-Fc and lysed. Anti-HA and anti-EphA3 immunoprecipitates, and total cell lysates were analysed by Western blotting with indicated antibodies. • C. Ephrin-A5-Fc cleavage in cells expressing wt and 3A mutant ADAM10. EphA3/293 cells were transfected with full length, wild-type (wt) ADAM10, dominant-negative ADAM10ΔMP, or ADAM10 bearing alanine (3A) or 3 lysine (3K) substitutions of Glu573, 578, 579. Following exposure to clustered (+) or non-clustered ? ephrin-A5 Fc, cleaved ephrin was recovered and analysed by Western Blot as described in FIG. 1c. […]

HEK293 cells = assay: Confocal imaging of co-cultured EphA3-diHcRed/ADAM10 and GFP-ephrin expressing cells; type: cell-based, human; details: co-incubation with GFP-ephrin-A5 or GFP-ephrin-A2 cells for 40 min
Protocol: as §1, with “1c. Parallel anti-HA blots of whole-cell lysates reveal the expression levels of ADAM10 constructs. • D. Model of ADAM protein modules and cleavage mechanism. Left, schematic representation of ADAM proteinases protein domain organization; right, schematic representation of the proposed interactions and positioning of ADAM10, EphA3, and Ephrin-A5 between interacting cells, leading to controlled ephrin-cleavage. • E. Ephrin cleavage from the cell surface is blocked by overexpression of 3A-mutant ADAM10. HEK293 cells were co-transfected with (red-fluorescent) EphA3-diHcRed and either wt ADAM10, ADAM10 bearing alanine (3A) substitutions at Glu573, Glu578, and Glu579, or dominant-negative ADAM10ΔMP.” for “1c.”

[2] = molecular target: T1, EphA3 (wild type, expressed in cells); assay: anti-EphA3 immunoprecipitation, anti-ADAM10 Western blot
Protocol: Cells were cultured in DME/10% FCS and transfected with Lipofectamine 2000 (Invitrogen), and in some experiments treated with the metalloprotease inhibitors 1,10-O-Phenanthroline (OPN, 4h, 1 mM; Mumm et al., 2000, Mol. Cell. 5 197-206) and TAPI1 (1h, 50 µM; Yan et al., 2002, J Cell Biol. 158 221-6). HEK293 cells were transfected with EphA3 (Wicks et al., 1992, Proc. Natl. Acad. Sci. USA 89 1611-1615) or ephrin-A5 (Winslow et al., 1995, Neuron 14 973-81; Lackmann et al., 1996, Proc. Natl. Acad. Sci. USA 93 2523-2527) in pEfBos vectors containing puromycin or gentamycin resistance genes, respectively and stable EphA3/HEK293 or ephrin-A5/HEK293 clones derived accordingly. Serum-starved cells were stimulated (10 min) with 1.5 ug/ml pre-clustered ephrinA5-Fc and harvested, as described previously. Immunoprecipitation was with anti-EphA3 mAb IIIA4 (Boyd et al., 1992, J Biol. Chem. 267 3262-3267. or anti-HA mAb 3F10 (Roche) conjugated to beads, and Western blotting was performed using anti-ADAM10 (Biogenesis, UK), anti-ephrinA5 (R&D Systems) and anti-ephA3 (Lackmann et al., 1997, supra) antibodies.
Initially, we investigated whether ADAM10 interacts with either EphA3 or ephrin-A5 on the cell surface and how these interactions are affected upon Eph/ephrin complex formation. […]

| binding result [2] | Molecule | ephrin-A5 cleavage [1] | ephrin cleavage from the cell surface and internalisation (HEK293 cells) |
| --- | --- | --- | --- |
| – | wt-ADAM10: full length, wild-type ADAM10 overexpressed in cells (protein, left off: small tags and cut ends, full length, wild-type ADAM10 overexpressed in cells) TTVAEKNTCQLYIQTDHLFFKYYGTREAVIAQISSHVKAIDTIYQTTDFSGIRNISFMVKRIRINTTADEKDPTNPFRFPNIGVEKFLELNSEQNHDDYCLAYVFTDRDFDDGVLGLAWVGAPSGSSGGICEKSKLYSDGKKKSLNTGIITVQNYGSHVPPKVSHITFAHEVGHNFGSPHDSGTECTPGESKNLGQKENGNYIMYARATSGDKLNNNKFSLCSIRNISQVLEKKRNNCFVESGQPICGNGMVEQGEECDCGYSDQCKDECCYDANQPEGKKCKLKPGKQCSPSQGPCCTAHCAFKSKTEKCRDDSDCAKEGICNGITALCPASDPKPNFTDCNRHTQVCINGQCAGSICEKHGLEECTCASSDGKDDKELCHVCCMKKMEPSTCASTGSVQWNKYFLGRTITLQPGSPCNDFRGYCDVFMRCRLVDADGPLARLKKAIFSPELYENIAEWIVAYWWAVLLMGIALIMLMAGFIKICSVHTPSSNPKLPPPKPLPGTLKRRRPPQPIQQPQRQRPRESYQMGHMRR | did not increase ephrin cleavage above control levels | readily noticeable |
| binds | endogenous ADAM10 (HEK293 and LiBr melanoma cells) (enzyme, human, UniProt O14672 214-748, looked up, whole, on cells; Both pro and mature forms are marked on the blot; also called pro (unprocessed) and mature (processed) forms) TTSAEKNTCQLYIQTDHLFFKYYGTREAVIAQISSHVKAIDTIYQTTDFSGIRNISFMVKRIRINTTADEKDPTNPFRFPNIGVEKFLELNSEQNHDDYCLAYVFTDRDFDDGVLGLAWVGAPSGSSGGICEKSKLYSDGKKKSLNTGIITVQNYGSHVPPKVSHITFAHEVGHNFGSPHDSGTECTPGESKNLGQKENGNYIMYARATSGDKLNNNKFSLCSIRNISQVLEKKRNNCFVESGQPICGNGMVEQGEECDCGYSDQCKDECCFDANQPEGRKCKLKPGKQCSPSQGPCCTAQCAFKSKSEKCRDDSDCAREGICNGFTALCPASDPKPNFTDCNRHTQVCINGQCAGSICEKYGLEECTCASSDGKDDKELCHVCCMKKMDPSTCASTGSVQWSRHFSGRTITLQPGSPCNDFRGYCDVFMRCRLVDADGPLARLKKAIFSPELYENIAEWIVAHWWAVLLMGIALIMLMAGFIKICSVHTPSSNPKLPPPKPLPGTLKRRRPPQPIQQPQRQRPRESYQMGHMRR | – | – |
